# Numbering of substitutions follows the chain as printed. Numbers in names are those of the source.
# B1: 1h-99-237 (other)
# VH: EVQLLESGGGLVQPGGSLRLSCAASGFTFDSANMSWARQAPGKGLEWVSWIEAPGVQTFYADSVRGRFTISRDNSKNTLYLQMNSLRAEDTAVYYCARSPFGPLYGFDYRGQGTLVTVSS
# B2: 1h-99-2 (other)
# VH: B1 VH with A37V, A53D, P54T, V56T, R65K, R98K
# B3: 1h-99-238 (other)
# VH: B1 VH with P54S, R65K, R98K
# B4: 1h-99-265 (other)
# VH: B1 VH with S31K, A32S, P54S, R65K, R98K
# B5: 1h-239-8 (other)
# VL: DIQMTQSPSSLSASVGDRVTITCRASQSIYPFLEWYQQKPGKAPKLLIYFTSRLQSGVPSRFSGSGSGTDFTLTISSLQPEDFATYYCLQNVTNPATFSQGTKVEIKR
# B6: 1h-239-850 (other)
# VL: B5 VL with Q27R, S28P, Y30W, T93S, N94M
# B7: 1h-239-891(D70C) 40K branched PEG (other)
# VL: B5 VL with Q27R, S28P, Y30W, Q55R, S56H, D70C, T93A
# modifications: 40 kDa branched PEG; engineered cysteine D70C
# B8: 1h-239-896 (other)
# VL: B5 VL with Q27R, S28P, Y30W, Q55A, S56R, T93Q, N94M
# B9: 1h-239-891(D70C) 30K linear PEG (other)
# VL: B5 VL with Q27R, S28P, Y30W, Q55R, S56H, D70C, T93A
# modifications: 30 kDa linear PEG; engineered cysteine D70C
# B10: 1h-239-890 (other)
# VL: B5 VL with Q27R, S28P, Y30W, Q55A, S56R, T93A
# B11: 1h-239-891 (other)
# VL: B5 VL with Q27R, S28P, Y30W, Q55R, S56H, T93A
# B12: 1h-99-2 40K linear PEG (other)
# VH: B1 VH with A37V, A53D, P54T, V56T, R65K, R98K
# modifications: 40K linear PEG; site of attachment not stated
# B13: 1h-99-237 40K linear PEG (other)
# VH: B1 VH
# modifications: 40K linear PEG; site of attachment not stated
# B14: 1h-99-2 40K branched PEG (other)
# VH: B1 VH with A37V, A53D, P54T, V56T, R65K, R98K
# modifications: 40K branched PEG; site of attachment not stated
# B15: 1h-99-238 40K linear PEG (other)
# VH: B1 VH with P54S, R65K, R98K
# modifications: 40K linear PEG; site of attachment not stated
# B16: 1h-239-891(G41C) 40K branched PEG (other)
# VL: B5 VL with Q27R, S28P, Y30W, G41C, Q55R, S56H, T93A
# modifications: 40K branched PEG; engineered cysteine G41C
# B17: 1h-239-891(S60C) 40K branched PEG (other)
# VL: B5 VL with Q27R, S28P, Y30W, Q55R, S56H, S60C, T93A
# modifications: 40K branched PEG; engineered cysteine S60C
# B18: 1h-239-891(Q79C) 40K branched PEG (other)
# VL: B5 VL with Q27R, S28P, Y30W, Q55R, S56H, Q79C, T93A
# modifications: 40K branched PEG; engineered cysteine Q79C
# B19: 1h-239-891(Q3C) 40K branched PEG (other)
# VL: B5 VL with Q3C, Q27R, S28P, Y30W, Q55R, S56H, T93A
# modifications: 40K branched PEG; engineered cysteine Q3C
# B20: 1h-239-850 40K linear PEG (other)
# VL: B5 VL with Q27R, S28P, Y30W, T93S, N94M
# modifications: 40K linear PEG; site of attachment not stated
# B21: 1h-239-891(S9C) 40K branched PEG (other)
# VL: B5 VL with S9C, Q27R, S28P, Y30W, Q55R, S56H, T93A
# modifications: 40K branched PEG; engineered cysteine S9C
# B22: 1h-239-891(K42C) 40K branched PEG (other)
# VL: B5 VL with Q27R, S28P, Y30W, K42C, Q55R, S56H, T93A
# modifications: 40K branched PEG; engineered cysteine K42C
# B23: 1h-239-8 40K linear PEG (other)
# VL: B5 VL
# modifications: 40K linear PEG; site of attachment not stated
# B24: 1h-239-891(S60C) 30K linear PEG (other)
# VL: B5 VL with Q27R, S28P, Y30W, Q55R, S56H, S60C, T93A
# modifications: 30K linear PEG; engineered cysteine S60C
# B25: DOM21-38 (other)
# VH: EVQLLESGGGLVQPGGSLRLSCAASGFTFILYDMQWVRQAPGKGLEWVSRISANGHDTYYADSVKGRFTISRDNSKNTLYLQMNSLRAEDTAVYYCAKGPHYLFDYWGQGTLVTVSS
# notes: VH dAb
# B26: DOM21-20 (other)
# VH: EVQLLESGGGLVQPGGSLRLSCAASGFTFPAYSMIWVRQAPGKGLEWVSTISPLGYSTYYADSVKGRFTISRDNSKNTLYLQMNSLRAEDTAVYYCAEQTAYLNRATEHFDYWGQGTLVTVSS
# notes: VH dAb
# B27: DOM21-18 (other)
# VL: DIQMTQSPSSLSASVGDRVTITCRASQYIGTSLNWYQQKPGKAPKLLTYQASLLQSGVPSRFSGSGSGTDFTLTISSLQPEDFATYYCQQLALRPMTFGQGTKVEIKR
# notes: VK dAb
# B28: DOM21-22 (other)
# VH: EVQLLESGGGLVQPGGSLRLSCAASGFTFELYQMGWVRQAPGKGLEWVSTIMPSGNLTYYADSVKGRFTISRDNSKNTLYLQMNSLRAEDTAVYYCAKMWSLNLGFHAAFDYWGQGTLVTVSS
# notes: VH dAb
# B29: DOM21-6 (other)
# VH: EVQLLESGGGLVQPGGSLRLSCAASGFTFENYGMAWVRQAPGKGLEWVSNIGRAGSVTYYADSVKGRFTISRDNSKNTLYLQMNSLRAEDTAVYYCAKVQSWRTFDYWGQGTLVTVSS
# notes: VH dAb
# B30: DOM21-27 (other)
# VL: DIQMTQSPSSLSASVGDRVTITCRASQSIGTGLRWYQQKPGKAPMLLIYRASILQSGVPSRFSGSGSGTDFTLTISSLQPEDFATYYCQQTTLQPFTFSQGTKVEIKR
# notes: VK dAb
# B31: DOM21-44 (other)
# VH: EVQLLESGGGLVQPGGSLRLSCAASGFTFARYTMVWVRQAPGKGLEWVSAIHFDGRTTYYADSVKGRFTISRDNSKNTLYLQMNSLRAEDTAVYYCAKNEWASLKHFDYWGQGTLVTVSS
# notes: VH dAb
# B32: DOM21-4 (other)
# VH: EVQLLESGGGLVQPGGSLRLSCAASGFTFSRYHMAWVRQAPGKGLEWVSVIDSLGLQTYYADSVKGRFTISRDNSKNTLYLQMNSLRAEDTAVYYCAEYGGAFDYWGQGTLVTVSS
# notes: VH dAb
# B33: DOM21-28 (other)
# VL: DIQMTQSPSSLSASVGDRVTITCRASQSISHSLVWYQQKPGKAPKLLIYWASLLQSGVPSRFSGSGSGTDFTLTISSLQPEDFATYYCQQGMTTPFTFGQGTKVEIKR
# notes: VK dAb
# Target: T1, human CD28 (human, UniProt P10747 19-220)
# Assay: cell-based or functional assay
Luciferase assay (EC50),MLR assay (EC50),Binder
3 nM,3 nM,B1
17 nM,13 nM,B2
3 nM,5 nM,B3
4 nM,3 nM,B4
10 nM,–,B5
9 nM,2 nM,B6

# Target: T1, human CD28
# Assay: cell-based or functional assay
# Remark: another data set of the same source
row,"EC50 of T cell proliferation, Monocytes as APC",Binder
1,10,B7

# Target: T1, human CD28
# Assay: cell-based or functional assay
# Remark: another data set of the same source
"IFNγ (EC50 nM), DC-driven MLR","IL-2 (EC50 nM), DC-driven MLR","TNFα (EC50 nM), DC-driven MLR",Binder
4.6 nM,2.4 nM,3.6 nM,B4
0.3 nM,0.3 nM,0.3 nM,B8
0.6 nM,0.6 nM,0.6 nM,B9
0.3 nM,0.1 nM,0.2 nM,B10
2.5 nM,1.5 nM,1.7 nM,B7
0.2 nM,0.1 nM,0.2 nM,B11

# Target: T1, human CD28
# Assay: cell-based or functional assay
# Remark: another data set of the same source
"CD80 CHO (EC50 nM), T cell proliferation","CD86 CHO (EC50 nM), T cell proliferation",Binder
1 nM,0.5 nM,B9
0.4 nM,0.4 nM,B7
0.3 nM,0.4 nM,B11

# Target: T1, human CD28
# Assay: cell-based or functional assay
# Remark: another data set of the same source
DC-MLR Assay (EC50 nM),Luciferase assay (EC50 nM),Binder
3 nM,3 nM,B1
13 nM,17 nM,B2
5 nM,3 nM,B3
390 nM,100 nM,B12
2 nM,–,B13
383 nM,117 nM,B14
29 nM,4.5 nM,B15
13 nM,10 nM,B5
2 nM,–,B16
1.2 nM,–,B17
4.9 nM,–,B18
1.5 nM,–,B19
4 nM,2 nM,B20
1.3 nM,–,B21
1.2 nM,–,B9
13 nM,–,B22
2.3 nM,–,B7
285 nM,510 nM,B23
2 nM,9 nM,B6
0.8 nM,–,B24
0.5 nM,0.2 nM,B11

# Target: T2, recombinant human CD28/Fc Chimera (human, UniProt P10747 19-152)
# T2 construct: bought from R&D Systems; Fc part of the bought chimera not given
# Assay: BIAcore, CM5 chip coated with 12500 RU of CD28-Fc
row,binding result,Binder
1,binds,B25
2,binds,B26
3,binds,B27
4,binds,B28
5,binds,B29
6,binds,B30
7,binds,B31
8,binds,B32
9,binds,B33

# — patent US20130109846A1 (published 2013)
